Results: publication PMC9942953, “Merlin tumor suppressor function is regulated by PIP2-mediated dimerization” (PLOS ONE, 2023)

T1: Merlin L64P, patient derived mutant, P35240
T1 chain: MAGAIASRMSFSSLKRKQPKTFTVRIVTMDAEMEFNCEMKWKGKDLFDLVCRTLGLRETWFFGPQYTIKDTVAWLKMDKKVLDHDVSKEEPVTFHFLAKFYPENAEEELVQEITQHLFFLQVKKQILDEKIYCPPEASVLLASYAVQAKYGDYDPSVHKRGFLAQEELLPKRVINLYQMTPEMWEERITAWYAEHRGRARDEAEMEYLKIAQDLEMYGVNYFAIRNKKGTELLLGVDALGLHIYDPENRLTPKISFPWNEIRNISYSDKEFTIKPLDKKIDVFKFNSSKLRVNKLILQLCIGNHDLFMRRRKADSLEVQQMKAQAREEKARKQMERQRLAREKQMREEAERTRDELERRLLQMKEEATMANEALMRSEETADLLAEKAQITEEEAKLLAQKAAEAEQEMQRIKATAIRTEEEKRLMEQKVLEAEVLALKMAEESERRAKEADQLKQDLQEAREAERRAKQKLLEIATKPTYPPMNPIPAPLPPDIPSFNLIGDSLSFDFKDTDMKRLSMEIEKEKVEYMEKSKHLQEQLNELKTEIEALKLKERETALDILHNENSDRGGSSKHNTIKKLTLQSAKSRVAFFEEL


Columns and labels:
[1] = target: the molecule itself; experiment: co-IP; HEK 293T co-transfected with a GFP fusion and a NanoLuc fusion; lysis in TBS, 2 mM MgCl2, 0.5% NP-40; GFP-Trap_MA; ratio of bound to unbound luciferase activity normalised to GFP fluorescence
[2] = target: T1, Merlin L64P, patient derived mutant, …; experiment: as above; conditions: remark: other sources report otherwise

| fold dimerization relative to wild type [2] [fold] | Binder | percent dimerization relative to wild type [1] [%] |
| --- | --- | --- |
| – | Merlin ΔN18, deletion of the N-terminal 18 amino acids (domain or fragment, UniProt P35240 19-595, looked up, Merlin isoform 1 without its unique N-terminal 18 amino acids; source: HEK 293T, co-transfected, in lysate; not shown: NanoLuc (probe copy) or EGFP (bait copy), C-terminal, kept) PKTFTVRIVTMDAEMEFNCEMKWKGKDLFDLVCRTLGLRETWFFGLQYTIKDTVAWLKMDKKVLDHDVSKEEPVTFHFLAKFYPENAEEELVQEITQHLFFLQVKKQILDEKIYCPPEASVLLASYAVQAKYGDYDPSVHKRGFLAQEELLPKRVINLYQMTPEMWEERITAWYAEHRGRARDEAEMEYLKIAQDLEMYGVNYFAIRNKKGTELLLGVDALGLHIYDPENRLTPKISFPWNEIRNISYSDKEFTIKPLDKKIDVFKFNSSKLRVNKLILQLCIGNHDLFMRRRKADSLEVQQMKAQAREEKARKQMERQRLAREKQMREEAERTRDELERRLLQMKEEATMANEALMRSEETADLLAEKAQITEEEAKLLAQKAAEAEQEMQRIKATAIRTEEEKRLMEQKVLEAEVLALKMAEESERRAKEADQLKQDLQEAREAERRAKQKLLEIATKPTYPPMNPIPAPLPPDIPSFNLIGDSLSFDFKDTDMKRLSMEIEKEKVEYMEKSKHLQEQLNELKTEIEALKLKERETALDILHNENSDRGGSSKHNTIKKLTLQSAKSRVAFFEEL | 33 |
| 1.28 | Merlin L64P, patient derived mutant, P35240 1-595 (natural protein) MAGAIASRMSFSSLKRKQPKTFTVRIVTMDAEMEFNCEMKWKGKDLFDLVCRTLGLRETWFFGPQYTIKDTVAWLKMDKKVLDHDVSKEEPVTFHFLAKFYPENAEEELVQEITQHLFFLQVKKQILDEKIYCPPEASVLLASYAVQAKYGDYDPSVHKRGFLAQEELLPKRVINLYQMTPEMWEERITAWYAEHRGRARDEAEMEYLKIAQDLEMYGVNYFAIRNKKGTELLLGVDALGLHIYDPENRLTPKISFPWNEIRNISYSDKEFTIKPLDKKIDVFKFNSSKLRVNKLILQLCIGNHDLFMRRRKADSLEVQQMKAQAREEKARKQMERQRLAREKQMREEAERTRDELERRLLQMKEEATMANEALMRSEETADLLAEKAQITEEEAKLLAQKAAEAEQEMQRIKATAIRTEEEKRLMEQKVLEAEVLALKMAEESERRAKEADQLKQDLQEAREAERRAKQKLLEIATKPTYPPMNPIPAPLPPDIPSFNLIGDSLSFDFKDTDMKRLSMEIEKEKVEYMEKSKHLQEQLNELKTEIEALKLKERETALDILHNENSDRGGSSKHNTIKKLTLQSAKSRVAFFEEL | – |
